Experimental data from KR20220167207A (dated 2022).
Numbering of substitutions follows the chain as printed. Where no end group is shown, it is not given here.

T1: BSA-conjugated human CADM1 peptide (human, also: conjugated to BSA via added C-terminal Cys)
T1 construct: also called human peptide; rhCADM1 peptide
T1 peptide: DSRAGEEGSIRAVDHC(BSA)

T2: BSA-conjugated mouse CADM1 peptide (mouse, also: conjugated to BSA via added C-terminal Cys)
T2 construct: also called mouse peptide
T2 peptide: DSRAGEEGTIGAVDHC(BSA)

T3: CADM1 peptide expressed on SBC-5 small cell lung cancer cells (CADM1-SBC-5); peptide - transmembrane domain - … (human)
T3 construct: also called CADM1 펩타이드를 발현하는 SBC-5 세포
T3 sequence (Q9BY67 whole entry, looked up): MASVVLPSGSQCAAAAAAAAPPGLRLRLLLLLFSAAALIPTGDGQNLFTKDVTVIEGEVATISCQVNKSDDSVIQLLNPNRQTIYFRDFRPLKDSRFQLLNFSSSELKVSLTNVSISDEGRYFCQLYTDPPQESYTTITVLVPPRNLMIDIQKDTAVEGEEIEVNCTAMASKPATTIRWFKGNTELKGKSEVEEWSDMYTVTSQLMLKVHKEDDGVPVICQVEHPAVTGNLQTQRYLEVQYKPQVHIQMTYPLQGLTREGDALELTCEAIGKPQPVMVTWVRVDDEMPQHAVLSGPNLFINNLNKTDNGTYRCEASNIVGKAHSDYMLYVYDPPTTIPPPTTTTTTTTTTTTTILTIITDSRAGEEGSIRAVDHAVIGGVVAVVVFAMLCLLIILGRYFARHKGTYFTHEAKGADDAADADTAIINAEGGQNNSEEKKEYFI

B1: 5RA5 (scFv, V domains shown)
VH: EVQLLESGGGLVQPGGSLRLSCAASGFTFSNYAMSWVRQAPGKGLEWVSWIYHGGGDTYYADSVKGRFTISRDNSKNTLYLQMNSLRAEDTAVYYCARAAVYCKRTNCYSYDAMDVWGQGTLVTVSS
VL: QSVLTQPPSASGTPGQRVTISCSGSSSNIGNNSVTWYQQLPGTAPKLLIYSNNNRPSGVPDRFSGSKSGTSASLAISGLRSEDEADYYCGAWDDSLNAYVFGGGTKLTAL
notes: Tested as purified scFv (one chain) with His tag and HA tag, from pComb3X in E. coli; human synthetic library
B2: 5RH12 (scFv, V domains shown)
VH: B1 VH with N84S, A100R, Y102H, K104Q, R105Q, T106R, N107R, Y109S
VL: B1 VL with N31S, T35S, S51A, N52D, N53S, N54H, N97S, A109V
notes: Tested as purified scFv with His tag and HA tag; human synthetic library
B3: 5RA8 (scFv, V domains shown)
VH: EVQLLESGGGLVQPGGSLRLSCAASGFTFSSYGMSWVRQAPGKGLEWVSGISYSGGSTYYADSVKGRFTISRDNSKNTLYLQMNSLRAEDTAVYYCARPISRLGAYMWSSSYAMDVWGQGTLVTVSS
VL: B1 VL with N31S, S33Y, S51A, N53S, A91S, D94A, A98G, A109V
notes: as for B2
B4: 5RA7 (scFv, V domains shown)
VH: EVQLLESGGGLVQTGGSLRLSCAASGFTFSDYAMSWVRQAPGRGLEWVSAIYPGNSSIYYADSVKGRFTISRDNSKNTLYLQMNSLRAEDTAVYYCARVPVQCMLTRCYSYDAMDVWGQGTLVTVSS
VL: B1 VL with S23T, S51A, N52D, N53S, N54H, D94S, A109V
notes: as for B2
B5: 5RB6 (scFv, V domains shown)
VH: EVQLLESGGGLVQPGGSLRLSCAASGFTFSDYAMSWVRQAPGKGLEWVSWIYYDSGSKYYADSVKGRFTISRDNSKNTLYLQMDSLRAEDTAVYYCAKHGRNTKNWPWYSANGMDVWGQGTLVTVSS
VL: B1 VL with S23T, N31S, T35S, N52D, N53S, N54K, D94S, N97S, A109V
notes: Tested as purified scFv with His tag and HA tag; human synthetic library; also called 5RB6(H); 5RB6 # Human specific
B6: 5RG9 (scFv, V domains shown)
VH: B3 VH with G50W, S57N, R102H, L103F
VL: B1 VL with N31S, S33Y, S51A, N53S, E84G, D94A, A98G, A109V
notes: as for B2
B7: 6RC7 (scFv, V domains shown)
VH: EVQLLESGGGLVQPGGSLRLSCAASGFTFSNYAMSWVRQAPGKGLEWVSGIYPNSGSNTYYADSVKGRFTISRDNSKNTLYLQMNSLRAEDTAVYYCARAIGPCLRYPCYSADAMDVWGQGTLVTVSS
VL: QSVLTQPPSASGTPGQRVTISCTGSSSNIGSNYVNWYQQLPGTAPKLLIYANSNPPSGVPDRFSGSKSGTSASLGISGLRSEDEADYYCGAWDDNLNAYVFVGGTKLTVL
notes: as for B2
B8: 4C8 (scFv, V domains shown)
VH: AVTLDESGGGLQTPGRALSLVCKASGFSFSSYSMYWVRQAPGKGLEYVAEITSSGRYTYYGSAVKGRATISRDNGQSTVRLQLNNFRAEDTATYFCAKGSGTGYSDSGAGGEIDAWGHGTEVIVSS
VL: LTQPSSVSANPGETVKITCSGGSGSYYGWYQQKSPGSAPVTVIYQNKQRPSNIPSRFSGSKSGSTGTLTITGVQAEDEAVYFCGNYESSAGIFGAGTTLTVL
notes: Tested as purified scFv with His tag and HA tag; chicken immune library
B9: 4A2 (scFv, V domains shown)
VH: AVTLDESGGGLQTPGRALSLACKGSGFTFSSYAMNWVRQAPGKGLEFVAQITSSGRYTYYGTAVKGRATISRDNGQSTVRLQLNNLRAEDSGTYYCAKDAAAGYYDGATAGDIDAWGHGTEVIVSS
VL: LTQPSSVSANPGETVKITCSGGYNRYGWYQQKSPGSAPVTVIYSNNQRPSNIPSRFSGSKSGSTATLTITGVQAEDEAVYYCGSYDSSDGYAGIFGAGTTLTVL
notes: as for B8
B10: RH6 (scFv, V domains shown)
VH: B9 VH with R16G, A17G, A21V
VL: VTQPSSVSANPGESVKITCSGGSYSYGWYQQKSPGSAPVTVIYSNNQRPSNIPSRFSGSTSGSTSTLTITGVQADDEAVYFCGTFDSSTNAAFGAGTTLTVL
notes: as for B8
B11: 4A8 (scFv, V domains shown)
VH: B9 VH with R16G, A17G, A21V, G24A
VL: LTQPSSVSANLGGTVKITCSGGSGSNHYGWYQQKSPGSAPVTVIYSNNKRPSNIPSRFSGSKFGSTATLTITGVQADDEAVYYCGGYDSSAGYIGPFGAGTTLTVL
notes: as for B8
B12: RB11 (scFv, V domains shown)
VH: B9 VH with R16G, A17G, A21V
VL: LTQPSSVSANPGGTVKITCSGGSGSYGWFQQKAPGSAPVTLIYANTNRPSDIPSRFSGSKSGSTATLTITGVQVEDEAVYYCGSTDSSYVSIFGAGTTLTVL
notes: as for B8
B13: 4H7 (scFv, V domains shown)
VH: AVTLDESGGGLQTPGGTLSLVCKASGFDFSSYEMAWVRQAPGKGLEYVAGIDNTGSATNYGAAVKGRATISRDNGQSTVRLQLNNLRAEDTATYFCAKDAYGYSGSDSWYAANPAYIDAWGHGTEVIVSS
VL: LTQPSSVSANPGETVKITCSGSSGSYGWYQQKSPGSAPVTVIYDNTNRPSDIPSRFSGSKSGSTGTLTITGVQAEDEAVYFCGSRDSSYVGIFGAGTTLTVL
notes: as for B8
B14: 5A2 (scFv, V domains shown)
VH: AVTLDESGGGLQTPGGTLSLVCKGSGFDFSSVNMFWVRQAPGKGLEYVAGIRKDGGGPLYGAAVKGRATISRDNGQSTVRLQLNNLRAEDTGTYFCAKAAGSCWAGCTGFIDAWGHGTEVIVSS
VL: B13 VL with S22G, G24S, S25Y, D44Y, T46D, N47K, G65A, F81Y, R85A
notes: as for B8
B15: 3C5 (scFv, V domains shown)
VH: B14 VH with G16R, T17A, D28T, F95Y
VL: LTQPSSVSANPGETVKITCSGGYNYYGWYQQKAPGSAPVTLIYANTDRPSDIPSRFSGSKFGSTATLTITGVQAEDEAVYFCGSRDSSYVGVFGAGTTLTVL
notes: as for B8
B16: 5A5 (scFv, V domains shown)
VH: B14 VH with T17G, D28T, F95Y
VL: LTQPSSVSANLGGTVKITCSGSSGYGYGWYQQKSPGSAPVTVIYYNNKRPSDIPSRFSGSKSGSTATLTITGVQVEDEAVYYCGSADSSAGYVGIFGAGTTLTVL
notes: as for B8
B17: 3G10 (scFv, V domains shown)
VH: B14 VH with T17G, D28T, F95Y
VL: LTQPSSVSANPGETVKITCSGSTGSYGWFQQKSPGSALVTLIYNGNNRPSDIPSRFSGSKSGSTGTLTITGVQADDEAVYFCGGRESRSNPGIFGAGTTLTVL
notes: as for B8

Target: T1, BSA-conjugated human CADM1 peptide
Assay: ELISA, scFv titrated on coated BSA-conjugated human CADM1 peptide, anti-HA-HRP, OD450

Going from B1 to B2, the Bmax rises from 4.29 to 5.07.

Going from B3 to B4, the Bmax rises from 4.12 to 4.42.

Compared with B5, B6 is lower in Bmax: 4.25 for the first, 3.52 for the second.

With B7 the Bmax was 4.19.

Going from B1 to B2, the Kd rises from 10.4 nM to 271 nM (26-fold).

Compared with B3, B4 is 23-fold higher in Kd: 1.9 nM for the first, 43.7 nM for the second. The first binds more tightly here.

B5 and B6 are within 1.5-fold of each other in Kd: 11.9 nM for the first, 8.05 nM for the second.

Work on B7 yielded a Kd of 4.23 nM.

Target: T2, BSA-conjugated mouse CADM1 peptide
Assay: ELISA, scFv titrated on coated BSA-conjugated mouse CADM1 peptide, anti-HA-HRP, OD450

Compared with B1, B2 is higher in Bmax: 4.39 for the first, 6.13 for the second.

Going from B3 to B4, the Bmax rises from 4.11 to 4.54.

First: B6
Second: B7
The Bmax of the first is lower: 3.64 for the first, 4.19 for the second.

First: B1
Second: B2
The Kd of the first is 17-fold lower: 39.5 nM for the first, 666 nM for the second. The first binds more tightly here.

Going from B3 to B4, the Kd rises from 2 nM to 114 nM (57-fold).

B6 and B7 are within 1.5-fold of each other in Kd: 6.97 nM for the first, 4.8 nM for the second.

Target: T1, BSA-conjugated human CADM1 peptide
Assay: ELISA, scFv titrated on coated BSA-conjugated human CADM1 peptide, anti-HA-HRP, OD450
Remark: another data set of the same source

First: B8
Second: B9
The Bmax of the first is higher: 4.47 for the first, 4.14 for the second.

Going from B10 to B11, the Bmax rises from 4.16 to 4.22.

Compared with B12, B13 is higher in Bmax: 4.01 for the first, 4.48 for the second.

Compared with B14, B15 is higher in Bmax: 4.38 for the first, 4.41 for the second.

Going from B16 to B17, the Bmax falls from 4.52 to 1.91.

First: B8
Second: B9
The Kd of the first is 16-fold higher: 66.5 nM for the first, 4.19 nM for the second. The second binds more tightly here.

Going from B10 to B11, the Kd rises from 5.58 nM to 16.4 nM (2.9-fold). The first binds more tightly here.

First: B12
Second: B13
The Kd of the first is 81-fold lower: 0.649 nM for the first, 52.7 nM for the second.

B14 and B15 are within 1.5-fold of each other in Kd: 47.9 nM for the first, 49.7 nM for the second.

Compared with B16, B17 is 44-fold lower in Kd: 123 nM for the first, 2.77 nM for the second.

Target: T2, BSA-conjugated mouse CADM1 peptide
Assay: ELISA, scFv titrated on coated BSA-conjugated mouse CADM1 peptide, anti-HA-HRP, OD450
Remark: another data set of the same source

Compared with B8, B9 is higher in Bmax: 2.06 for the first, 4.49 for the second.

Compared with B10, B11 is higher in Bmax: 2.4 for the first, 4.43 for the second.

First: B12
Second: B13
The Bmax of the first is lower: 4 for the first, 5.57 for the second.

First: B14
Second: B15
The Bmax of the first is higher: 4.32 for the first, 4.05 for the second.

Compared with B16, B17 is lower in Bmax: 4.54 for the first, 1.62 for the second.

Going from B8 to B9, the Kd falls from 476 nM to 79.2 nM (6-fold). The second binds more tightly here.

Compared with B10, B11 is 1.8-fold lower in Kd: 124 nM for the first, 70.2 nM for the second.

First: B12
Second: B13
The Kd of the first is 140-fold lower: 2.72 nM for the first, 394 nM for the second.

B14 and B15 are within 1.5-fold of each other in Kd: 59.2 nM for the first, 41.7 nM for the second.

Compared with B16, B17 is 150-fold lower in Kd: 136 nM for the first, 0.926 nM for the second.

Target: T3, CADM1 peptide expressed on SBC-5 small …
Assay: flow cytometry, 1 ug scFv on 5x10^5 SBC-5 cells expressing the CADM1 peptide, PE anti-HA

Going from B8 to B9, the “결합력 (%)” value rises from 2.3% to 18.5%.

Going from B10 to B11, the “결합력 (%)” value rises from 10% to 10.1%.

First: B12
Second: B13
The “결합력 (%)” value of the first is higher: 38.4% for the first, 3.3% for the second.

First: B14
Second: B15
The “결합력 (%)” value of the first is higher: 1.2% for the first, 1.1% for the second.

Target: T4, comparison structure: the same structure without the CADM1 peptide (Myc tag, hinge, transmembrane domain, …)
T4 construct: also called 비교군 구조; CADM1 펩타이드를 포함하지 않는 세포
Assay: flow cytometry, 1 ug scFv on 5x10^5 cells with the structure without the CADM1 peptide, PE anti-HA

B9 and B10 are the same in 결합력 (%): 0.7% for the first, 0.7% for the second.

First: B11
Second: B12
The 결합력 (%) of the first is lower: 0.9% for the first, 1.2% for the second.
